From publication PMC6182392

Biological target: Filgrastim (recombinant human granulocyte-colony stimulating factor from Escherichia coli) (human) (UniProt P09919)
Assay: SEC; HP-SEC, TSKgel G3000SWXL, 50 mM ammonium hydrogen carbonate pH 7.0, column 30°C; expired PDgrastim diluted to 0.25 mg/ml in 100 mM sodium acetate pH 5.0; dimer and oligomer assigned by retention relative to the monomer (Ph. Eur.)

A relative peak area of dimer of 3.6%, a relative peak area of oligomer of 0.1% and a stoichiometry N of 2 were found for “Filgrastim (recombinant human granulocyte-colony stimulating factor from Escherichia coli) (from UniProt P09919-2 31-204) (ligand)” in this work.
